Source: patent US9744220B2, “Compositions and methods for treating inflammatory diseases” (priority 2013, dated 2017)

Columns and labels:
[1] = test system: H9c2 cardiomyocytes; experiment: sPDNF stimulation of H9c2 cardiomyocytes, transcripts by qPCR; type: cell-based, rat
Procedure: FIG. 8A is a graph showing dose-response of MCP-1 secretion to sPDNF stimulation. H9c2 cardiomyocytes were plated in 6-well plates, grown in low serum (0.1% FCS) overnight, and stimulated with the indicated doses of sPDNF for 3 hr. Secretion of MCP-1, MIP-2α and IL-6 was determined by ELISA. FIG. 8B is a graph showing dose-response of MCP-transcript expression. H9c2 cardiomyocytes were plated in 6-well plates, grown in low serum (0.1%) overnight, and stimulated with the indicated doses of sPDNF for 3 hr, and MCP-transcript quantified by qPCR. Chemokine gene expression was normalized to HPRT and fold change calculated relative to vehicle-treated cells. Points represent mean±SD fold change expression of triplicate samples; *P<0.05, **P<0.01, and ***P<0.005. FIG. 8C is a graph showing time course of MCP-1 and FKN transcripts expression. H9c2 cardiomyocytes were plated in 6-well plates (triplicate), grown in low serum (0.1%) overnight, stimulated with sPDNF (1 μg/ml) for the indicated times, and MCP-1 and FKN (data not shown) transcripts quantified by qPCR. Three experiments gave similar results.
Primary cardiomyocytes and cardiac fibroblasts, and H9c2 cardiomyocytes were seeded at 6-8×10^4 cells per well in DMEM/10% FCS and allowed to adhere overnight, serum starved (DMEM/0.1% FCS overnight), and treated with sPDNF (0.5 ng/ml-8 μg/ml, 0-16 h). Cell supernatants were collected and stored at −80° C. and cell monolayers rinsed with PBS and collected in Trizol for qPCR analysis.
RNA was isolated from Trizol lysates of cell monolayers or liquid nitrogen snap frozen tissue samples dissociated by a Tissue-Tearor mechanical homogenizer (Biospec Products, Inc.). cDNA was synthesized using the Quantitect Reverse Transcription kit (Qiagen) according to manufacturer's instructions. Chemokine and chemokine receptor transcripts were amplified using specific primers and normalized to HPRT using SYBR Green (Qiagen), and, if needed, expressed relative to control-unstimulated cells. The following primers were used: […]

[2] = target: TrkB (Homo sapiens, UniProt Q16620); conditions: previous finding; cited from earlier work
Sequence of TrkB (Q16620 32-822, species assumed): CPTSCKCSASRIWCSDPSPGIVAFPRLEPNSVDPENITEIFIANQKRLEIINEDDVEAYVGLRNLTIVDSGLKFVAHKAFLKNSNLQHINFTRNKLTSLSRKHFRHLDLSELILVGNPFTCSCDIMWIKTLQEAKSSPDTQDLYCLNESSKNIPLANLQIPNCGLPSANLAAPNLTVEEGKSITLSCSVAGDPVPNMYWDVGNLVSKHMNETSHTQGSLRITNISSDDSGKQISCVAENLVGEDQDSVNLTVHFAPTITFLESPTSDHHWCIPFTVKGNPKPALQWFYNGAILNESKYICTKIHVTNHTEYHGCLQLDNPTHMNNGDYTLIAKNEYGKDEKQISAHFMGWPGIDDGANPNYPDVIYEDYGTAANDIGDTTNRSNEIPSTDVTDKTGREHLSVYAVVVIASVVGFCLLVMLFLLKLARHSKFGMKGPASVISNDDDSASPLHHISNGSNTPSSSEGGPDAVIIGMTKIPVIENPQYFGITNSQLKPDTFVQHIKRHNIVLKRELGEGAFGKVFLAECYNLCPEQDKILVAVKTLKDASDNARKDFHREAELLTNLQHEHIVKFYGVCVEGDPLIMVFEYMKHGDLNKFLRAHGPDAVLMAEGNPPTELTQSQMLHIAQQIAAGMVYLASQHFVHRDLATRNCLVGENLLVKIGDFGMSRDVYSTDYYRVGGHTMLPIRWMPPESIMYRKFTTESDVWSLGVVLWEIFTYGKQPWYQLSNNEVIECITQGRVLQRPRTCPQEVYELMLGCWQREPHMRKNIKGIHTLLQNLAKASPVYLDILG

[3] = Toxicity in RAG-2-/- deficient mice; type: in vivo; conditions: highly susceptible to endotoxin shock
[4] = test system: heart of mice with chronic Chagas cardiomyopathy (CCC); experiment: Chronic Chagas cardiomyopathy (CCC) mice, heart histology (H&E, Masson-Trichrome); type: in vivo; conditions: for cardiac fibrosis: IV, Masson-Trichrome
Procedure: FIG. 3A depicts in vivo experimental design, groups, treatment and timeline for the infective and anti-inflammatory effects of sPDNF. C57BL/6 mice (7 per group) were injected intraperitoneally with T cruzi Colombian strain (8×10^2 per mouse) and, four months later, intravenously with PBS (vehicle) or sPDNF (1 mg/kg body weight) at 0, 3, and 24 hours, weekly for 3 weeks. Mice were sacrificed 50 days after the first set of IV sPDNF treatment. FIG. 3B are images of heart (ventricle) paraffin-embedded, sectioned, and stained with H&E. Arrows indicate foci of inflammatory infiltrates, which were abundant in sham-treated (IV PBS) CCC mice and rare in IV sPDNF-treated CCC mice. Similar histology was found in other tissue sections and in a distinct set of sPDNF-treated and PBS-sham mice.
Same mice and experimental protocol as described in FIG. 3A were used except that paraffin-embedded heart sections were stained with Masson-Trichrome to visualize collagen in fibrotic areas (blue) and viable muscle fibers (red). FIGS. 4A and 4B display sections of atria of mice with CCC administered IV PBS or IV sPDNF, respectively. FIG. 4C is a graph showing the amount of cardiac fibrosis, as determined using ImageJ software (NIH) in four distinct sections of atria and ventricles. Relative cardiac fibrosis is defined as the ratio of blue pixels to total pixels (blue+red) normalized to corresponding areas of the heart of uninfected mice set at 1.0 (dotted line); **, P<0.01, ns, not significant relative uninfected hearts.

[5] = test system: primary cardiomyocytes; experiment: sPDNF stimulation of primary cardiomyocytes, chemokine transcripts by qPCR; type: cell-based, mouse; conditions: 3 hr, dose-dependent
Procedure: FIG. 7A is a graph depicting MCP-1 and FKN expression in cardiomyocytes of mice infected with T cruzi. FIG. 7B is a graph depicting MCP-1 and FKN expression in cardiac fibroblasts of mice infected with T cruzi. T cruzi infection: Primary cultures of mouse cardiomyocytes (FIG. 7A) and cardiac fibroblasts (FIG. 7B) were plated in 6-well plates, infected with T cruzi Tulahuen strain (MOI=10) for 3, 24, and 72 hr, and MCP-1 and FKN transcripts were quantified by qPCR. Chemokine gene expression was normalized to HPRT and fold change calculated relative to uninfected cells. Points represent mean±SD fold change expression of triplicate samples. The experiment was repeated, and similar results were obtained. FIG. 7C is a graph depicting MCP-1 and FKN expression in cardiomyocytes of mice injected with sPDNF. FIG. 7D is a graph depicting MCP-1 and FKN expression in cardiac fibroblasts of mice injected with sPDNF. sPDNF stimulation: Primary cardiomyocytes (FIG. 7C) and cardiac fibroblasts (FIG. 7D) were plated in 6-well plates, serum starved overnight, then stimulated with the indicated concentration of sPDNF (3 hr), and MCP-1 and FKN transcripts were quantified by qPCR. Chemokine gene expression was normalized to HPRT and fold change calculated relative to vehicle-treated cells; *P<0.05, **P<0.01, and ***P<0.005. […]

[6] = test system: cardiac Sca-1+ cells; experiment: Intravenous sPDNF into naïve mice, Sca-1 staining of heart sections; type: in vivo
[7] = H9c2, sPDNF 1 μg/ml, time course

B1: sPDNF: N-terminal short-form of T cruzi PDNF that contains Trk-binding sites, recombinant; amino acids 1-588 of SEQ ID NO: 2; JR-100 is the commercial name (protein, listed as Trypanosoma cruzi)
chain: MGKTVVVASRMFWLMFFVPLLLAICPSEPAYALAPGSSRVELFKRKNSTVPFEDKAGKVTERVVHSFRLPALVNVDGVMVAIADARYDTSNDNSLIDTVAKYSVDDGETWETQIAIKNSRVSSVSRVVDPTVIVKGNKLYVLVGSYYSSRSYWSSHGDARDWDILLAVGEVTKSTAGGKITASIKWGSPVSLKKFFPAEMEGMHTNQFLGGAGVAIVASNGNLVYPVQVTNKKKQVFSKIFYSEDDGKTWKFGKGRSDFGCSEPVALEWEGKLIINTRVDWKRRLVYESSDMEKPWVEAVGTVSRVWGPSPKSNQPGSQSSFTAVTIEGMRVMLFTHPLNFKGRWLRDRLNLWLTDNQRIYNVGQVSIGDENSAYSSVLYKDDKLYCLHEINTDEVYSLVFARLVGELRIIKSVLRSWKNWDSHLSSICTPADPAASSSESGCGPAVTTVGLVGFLSGNASQNVWEDAYRCVNASTANAERVRNGLKFAGVGGGALWPVSQQGQNQRYRFANHAFTLVASVTIHEAPRAASPLLGASLDSSGGKKLLGLSYDEKHQWQPIYGSTPVTPTGSWETGKRYHLVLTMANKI
[1]; H9c2, 3 hr, dose-dependent
  FKN mRNA: increase
  MCP-1 mRNA: increase
[1]; [7]
  time at which MCP-1 transcript dropped to levels similar to unstimulated cells: 8 h
  time of maximal MCP-1 transcript increase after sPDNF stimulation: 3 h
[2]
  recognition of TrkB: not recognized
[3]
  toxicity: non-toxic
[4]; IV 1 mg/kg at 0, 3, 24 hours weekly for 3 weeks, 1 mg/kg
  inflammatory infiltrates in the heart: dramatic reduction and rare
[4]
  cardiac fibrosis: reduced
[4]; listed as PDNF fragment
  cardiac fibrosis: nearly eliminated
[5]
  FKN transcripts: increase
  MCP-1 transcripts: increase
[6]
  cardiac Sca-1+ cells: expanded
